According to patent publication US20110262445A1 (CEPHALON AUSTRALIA, published 2011):
Where a chain is given by its changes, count along the chain named.

B1: Antibody 60 (antibody, human IgG1, kappa, V domains shown)
VH: EVQLVQSGAEVKKPGATVKISCKASGYTFSDYYLHWVRQRPEKGLEWMGWIDPENGDTEYAPKFQGKVTITADTSTDTGYLELSSLRSEDTAVYYCAANKELRYFDVWGQGTLVTVSS
VL: DIQMTQSPSSVSASVGDRVTITCRASQSISINLHWYQQKPGKAPKLLIKFASQSISGVPSRFSGSGSGTDFSLTINSLQPEDFATYYCQQSNSFPLTFGGGTKVEIKR
B2: Antibody 67 (antibody, human IgG1, kappa, V domains shown)
VH: B1 VH with E42G, K67R
VL: B1 VL with K49Y, T85R
B3: Antibody 64 (antibody, human IgG1, kappa, V domains shown)
VH: B1 VH with R40A, E42G
VL: B1 VL with K49Y, S65Y
B4: Antibody 63 (antibody, human IgG1, kappa, V domains shown)
VH: B1 VH with R40A, K67R
VL: B1 VL with K49Y, S65Y
B5: Antibody 61 (antibody, human IgG1, kappa, V domains shown)
VH: B1 VH with R40A, E42G, K67R
VL: B1 VL with K49Y, S65Y
B6: Antibody 66 (antibody, human IgG1, kappa, V domains shown)
VH: B1 VH with R40A, E42G, K67R
VL: B1 VL with K49Y, T85R
B7: Antibody 69 (antibody, human IgG1, kappa, V domains shown)
VH: B1 VH with R40A, E42G
VL: B1 VL with K49Y, T85R
B8: Antibody 62 (antibody, human IgG1, kappa, V domains shown)
VH: B1 VH with E42G, K67R
VL: B1 VL with K49Y, S65Y
B9: Antibody 65 (antibody, human IgG1, kappa, V domains shown)
VH: B1 VH
VL: B1 VL with K49Y, S65Y
B10: Antibody 143 (antibody, human IgG1, kappa, V domains shown)
VH: B1 VH with R40A, K67R
VL: B1 VL with G41H, K49Y, T85R
B11: Antibody 144 (antibody, human IgG1, kappa, V domains shown)
VH: B1 VH with R40A, K67R
VL: B1 VL with K42E, K49Y, T85R
B12: Antibody 132 (antibody, human IgG1, kappa, V domains shown)
VH: B1 VH with R40A, K67R
VL: B1 VL with G41H, K49Y
B13: Antibody 135 (antibody, human IgG1, kappa, V domains shown)
VH: B1 VH with R40A, K67R
VL: B1 VL with K49Y, V58I
B14: Antibody 137 (antibody, human IgG1, kappa, V domains shown)
VH: B1 VH with R40A, K67R
VL: B1 VL with K49Y, Y87F
B15: Antibody 145 (antibody, human IgG1, kappa, V domains shown)
VH: B1 VH with R40A, K67R
VL: B1 VL with A43S, K49Y, T85R
B16: Antibody 133 (antibody, human IgG1, kappa, V domains shown)
VH: B1 VH with R40A, K67R
VL: B1 VL with K42E, K49Y
B17: Antibody 141 (antibody, human IgG1, kappa)
heavy chain: not shown
light chain: DIQMTQSPSSVSASPGDRVTITCRASQSISINLHWYQQKPGKAPKLLIYFASQSISGVPSRFSGSGSGTDFSLTINSLQPEDFARYYCQQSNSFPLTFGGGTKVEIKRTVAAPSVFIFPPSDEQLKSGTASVVCLLNNFYPREAKVQWKVDNALQSGNSQESVTEQDSKDSTYSLSSTLTLSKADYEKHKVYACEVTHQGLSSPVTKSFNRGEC
B18: Antibody 131 (antibody, human IgG1, kappa, V domains shown)
VH: B1 VH with R40A, K67R
VL: B1 VL with P40S, K49Y
B19: Antibody 140 (antibody, human IgG1, kappa)
heavy: not shown
light: B17 light chain with S14T, P15V
B20: Antibody 142 (antibody, human IgG1, kappa, V domains shown)
VH: B1 VH with R40A, K67R
VL: B1 VL with P40S, K49Y, T85R
B21: Antibody 147 (antibody, human IgG1, kappa, V domains shown)
VH: B1 VH with R40A, K67R
VL: B1 VL with K49Y, P80T, T85R
B22: Antibody 148 (antibody, human IgG1, kappa, V domains shown)
VH: B1 VH with R40A, K67R
VL: B1 VL with K49Y, T85R, Y87F
B23: Antibody 146 (antibody, human IgG1, kappa, V domains shown)
VH: B1 VH with R40A, K67R
VL: B1 VL with K49Y, V58I, T85R
B24: Antibody 134 (antibody, human IgG1, kappa, V domains shown)
VH: B1 VH with R40A, K67R
VL: B1 VL with A43S, K49Y

Each binder was assayed against T1, human IL-12 (human, UniProt P29460 23-328; P29459 23-219) (assay: ELISA, coated IL-12).
T1 construct: Recombinant (Peprotech); FLAG-tagged IL-12 in the flow cytometry assays, biotinylated in the IL-12Rβ2 assay; also called hIL-12
T1 sequence 1: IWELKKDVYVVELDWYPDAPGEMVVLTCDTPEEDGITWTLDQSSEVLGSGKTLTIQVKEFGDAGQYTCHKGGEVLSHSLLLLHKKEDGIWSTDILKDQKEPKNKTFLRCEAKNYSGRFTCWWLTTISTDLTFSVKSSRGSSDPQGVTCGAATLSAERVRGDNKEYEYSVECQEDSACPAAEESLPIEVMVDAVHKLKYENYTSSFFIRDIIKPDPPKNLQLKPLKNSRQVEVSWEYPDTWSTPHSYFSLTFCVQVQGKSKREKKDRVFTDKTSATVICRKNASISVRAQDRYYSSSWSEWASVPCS
T1 sequence 2: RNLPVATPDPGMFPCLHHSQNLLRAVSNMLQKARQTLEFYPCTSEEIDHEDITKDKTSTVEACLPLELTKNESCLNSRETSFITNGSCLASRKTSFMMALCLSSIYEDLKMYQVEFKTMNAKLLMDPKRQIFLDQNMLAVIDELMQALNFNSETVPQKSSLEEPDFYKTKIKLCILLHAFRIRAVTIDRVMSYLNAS
Method in brief: (§1)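 Each value is an absorbance measuring binding. Plates (Maxisorp) carried cytokine coated at 1 μg/mL in carbonate buffer pH 9.6 overnight at 4° C, were blocked with 1% BSA in PBS for 1 hour at 25° C, and received antibody titrations for 1 hour at 25° C. Detection used goat anti-human IgG or anti-murine immunoglobulin HRP at 1:2000 for 1 hour, then TMB stopped with 1M HCl, with absorbance taken at 450 nm (reference 620 nm).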

Binding result, binds:
B1
B2
B3
B4
B5
B6
B7
B8
B9

These binders were tested against T2, human IL-23 (human, UniProt P29460 23-328; Q9NPF7 20-189) (assay: ELISA, coated IL-23).
T2 construct: Recombinant (Ebioscience); HIS-tagged in flow cytometry, biotinylated in some assays; also called hIL-23; rhIL-23
T2 sequence 1: T1 sequence 1
T2 sequence 2: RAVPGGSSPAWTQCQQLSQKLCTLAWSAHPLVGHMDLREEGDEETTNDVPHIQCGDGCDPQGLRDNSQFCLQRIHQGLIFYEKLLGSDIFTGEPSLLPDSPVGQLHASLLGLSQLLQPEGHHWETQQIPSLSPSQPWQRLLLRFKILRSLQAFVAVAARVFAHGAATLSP
Method in brief: as §1

Binding result, binds:
B1
B2
B3
B4
B5
B6
B7
B8
B9

Target: T1, human IL-12
Experiment: ELISA, coated IL-12
Remark: another data set of the same source
Method in brief: as §1

Binding result, binds:
B10
B11
B12
B13
B14
B15
B16
B17
B18
B19
B20
B21
B22
B23
B24

Target: T2, human IL-23
Experiment: ELISA, coated IL-23
Remark: another data set of the same source
Method in brief: as §1

Binding result, binds:
B10
B11
B12
B13
B14
B15
B16
B17
B18
B19
B20
B21
B22
B23
B24
